Our source for the 3-aminotriazole concentration that suppresses growth values is paper PMC4564306.

One assay has as its target LexA-Rab10 Q68L (mouse) (UniProt P61027). As to the kind of experiment: two-hybrid.
Assay [1] deals with LexA-Rab10 wild-type (mouse) (UniProt P61027). Put plainly: two-hybrid.

In the case of “GAD-Exoc6 CT (from UniProt Q8TAG9-1 384-797) (domain or fragment)”, the 3-aminotriazole concentration that suppresses growth with LexA-Rab10 Q68L (mouse) came to 1 mM.

B1: GAD-Exoc6b CT (domain or fragment)
chain: SDPNLVLDLKNLIVLFADTLQVYGFPVNQLFDMLLEIRDQYSETLLKKWAGIFRNILDSDNYSPIPVTSEEMYKKVVGQFPFQDIELEKQPFPKKFPFSEFVPKVYNQIKEFIYACLKFSEDLHLSSTEVDDMIRKSTNLLLTRTLSNSLQNVIKRKNIGLTELVQIIINTTHLEKSCKYLEEFITNITNVLPETVHTTKLYGTTTFKDARHAAEEEIYTNLNQKIDQFLQLADYDWMTGDLGNKASDYLVDLIAFLRSTFAVFTHLPGKVAQTACMSACKHLATSLMQLLLEAEVRQLTLGALQQFNLDVRECEQFARSGPVPGFQEDTLQLAFIDLRQLLDLFIQWDWSTYLADYGQPNCKYLRVNPVTALTLLEKMKDTSRKNNMFAQFRKNERDKQKLIDTVAKQLRGLI
Consider B1, for which the 3-aminotriazole concentration that suppresses growth in assay [1] is 1 to 5 mM; with LexA-Rab10 Q68L (mouse) it was 50 mM.
